The values below come from the nanobody polyreactivity screen of Harvey et al. (2022).

The data set is described as follows: yeast display, Sf9 membrane polyspecificity reagent, FACS + sequencing; frameworks hold sequencing errors. The procedure, abridged: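 Synthetic nanobody libraries on Saccharomyces cerevisiae BJ5465 were galactose-induced for 36–48 hours, stained 1 hour at 4 °C with 10% biotinylated, detergent-solubilized Sf9 membrane reagent and enriched on streptavidin microbeads. FACS then separated cells into low and high (top ~1%) gates by anti-HA (expression) and streptavidin (reagent binding) fluorescence. Genes were colony-PCR amplified, MiSeq 2 × 250 sequenced and CDR-length filtered. A clone's polyreactivity label is that of its gate of origin.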
As for “QVQLVESGGGLVQAGGSLRLSCAASGIIFGSYAMGWYRQAPGKERELVAGISRRGDSTYYADSVKGRFTISRDNAKNTVYLQMNSLNPEDTAVYYCAADRYLYFYWWPHVGGSPTYGYWGQGTQVTVSS”, the “polyreactivity (PSR sort gate)” value is “high polyreactivity”.
The value for “QVQLVESGGGLVQAGGSLRLSCAASGSIFWWNAMGWYRQAPGKERELVARITRGGTTYYADSVKGRFTISRDNAKNTVYLQMNSLKPEDTAVYSCNAVSGWSRYDFWGQGSQVTVSS” was “low polyreactivity”; that for “QVQLVESGGCLVQAGGILRLSCAASGSIFVGYDMGWYRQAPGKERELVAAITGTVSTYYADSVKGRFTISRDNAKNTVYLQMNSLKPEDTAVYYCAAEFVYAYGDGGVYWSWMEYWGQGTQVTVSS” was “low polyreactivity”; that for “QVQLVESGGGLVQAGGSLRLSCAASGSTFARYVMGWYRQAPGKERELVAAIRSTGGRTYYADSVKGRFTISRDNAKNNVYVQMNSLKPEDTAVYYCAAAFGQYSRKRFDYWGQGTQVTVSS” was “high polyreactivity”.
Regarding “QVQLVESGGGLVQAGGSLRLSCAASGRIFIEYAMGWYRQAPGKERELVATINSSGGRTYYADSVKGRFTISRDNAKNTVYLQMNSLKPEDTAVYYCAARGSYRGPYNVEYDSWGQGTQVTVSS”, the “polyreactivity (PSR sort gate)” value is “low polyreactivity”.
For “QVQLQESGSGLVQAGGSLRLSCAASGYISLGDNMGWYRQAPGKDREFGATISVGGITYYVDSVKGRFTISRDIAKNTVYLQMNSLTPEDTAVYYCAALEIYYFRYYYWGQGTQVTVSS”, the “polyreactivity (PSR sort gate)” value was “low polyreactivity”.
Take “QVQLVESGGGLVQAGGSLRLSCAASGRTFVVNAMGWYRQATGKERELVAAITRRGGITYYADSVKGRFTISRDTAKNTVYFQMNSLKPEDTAVLYCAADRSYYPDTRSTYGYNYWGQGTQVTVSS”: the “polyreactivity (PSR sort gate)” value was “low polyreactivity”.
As to “QVQLVESGGGLVQAGGSLRLSCAASGSTFLVYAMGWYRQAPGKERELVAVIDNGGDTYYADSVKGRFTISRDNAKNTVYLQMNSLIPEDTEVYYCAADLSYLGYWEYDYWGQGTQVTVSS”, the “polyreactivity (PSR sort gate)” value is listed as “low polyreactivity”.
For the sequence “QVQLVESGGGLVQAGGSLRLSCAASGRTFVPYAMGWYRQAPGKERELVAAISWSSVSTYYADSVKGRFTISRDNAKNTVYLQMNSLKPEDTAVYYCAAEYYTRVAEYYYWGQGTQVTVSS”, the “polyreactivity (PSR sort gate)” value was “high polyreactivity”.
For the sequence “QVQLVESGGGLVQAGGSLRLSCAASGRTFHRYTMGWYRQAPGKERELVASISRSGGSTYYADSVKGRFTISRDNAKNTVYLQMNSLKPEDTAVYYCAARVSRRGTWYDYWGQGTQVTVSS”, the “polyreactivity (PSR sort gate)” value was “high polyreactivity”.
With “QVQLVESGGGLVQAGGSLRLSCAASGFTFLINAMGWYRQAPGKERELVAAIRSGGSTNYADSVKGRFTISRDNAKNSVYFQMNSLKPEDTAVYYCAARRYYPYKYRYGYWGQGTQVTVSS”, the “polyreactivity (PSR sort gate)” value was “high polyreactivity”.
“QVQLVESAGGLVQAGGSLRLSCAASGRIFGYYAMGWYRQAPGKERELVARISRGGSTYYADSVKGRFTISRDNAMNTVYLQMTSLKPEDTGVYYCAATRSGYTSYTDDSWGQGTQVTVSS”: the “polyreactivity (PSR sort gate)” value was “high polyreactivity”.
For “QVQLVESGGGLVQAGGSLRLSSAASGGTFGGYTRRWSRQAPGKERELVAAITRRGSSTFYADSVKGRFTISRDNAKKTVYLQMNSLKPEDTAVYYCAARYIVYLRTQSERYNSYDYWAQGTQVTVSS”, the “polyreactivity (PSR sort gate)” value is “high polyreactivity”.
On to “QVQLVESGGRLVQAGGSLRLSCAASGSTFAVYAMGWYRQAPGKERELVAAINRSGDSTYYADSVKGRFTISRDNAKNTVYLQMNSLKPEDTAVYYCAVSAWTRSHALYYWGQGTQVTVSS”, for which the “polyreactivity (PSR sort gate)” value is “high polyreactivity”.
As for “QVQLVESGGGLVQAGGSLRLSCAATGRTFRVYAIGWYRHAHAKEREFVATISVRGGSTYYADSVKGRFTISRDNAKNTVYLQMNSLKPEDTAVYYCAADSYPYVYALYDYWGQGTQVTVSS”, the “polyreactivity (PSR sort gate)” value is given as “low polyreactivity”.
For the sequence “QVQLVASGGGLVQAGGSLRLSCAASGSIFARYALGWYSQAPGKEREWVAALRWSGGRTYYADSVKGRFTISRDNAKNTVYLQMNSLKPEDTAVDYCNAVIHRLGKTYGTNRVDYWGQGTQVTVSS”, the “polyreactivity (PSR sort gate)” value is given as “high polyreactivity”.
Then “QVQLVESGGGLVQAGGSLRLSCAPSGITFRQFTMGWYRQAPGKERELVAAITSSGRTYYADSVKGRFTISLDNAKNTVYLQMNSLKPEDTAVYYCAAGVGGAAHPVSYFTYDYWGQGTQVTVSS”, with “high polyreactivity”; and “QVQLVESGGGLVQAGGILRLRCAASGLTFVYYAMGWYRQAPGKERELVAGITSRGGRTYYADSVKGRFTISRDNAKNTVYLQMNSLKPEDTAGYYCNAVDRYNRFDYWGQGTQVTVSS”, with “high polyreactivity”; and “QVQHVESGGGLEQARGSLRLTCAASGRTFRYYAMAWYRQAPGKERELVASISDGGSTNYADSVNGRFTITRDNAKNTVYLQMNRLKPEDTAVYYCNSKCYVWYLYDEFGYWGQGTQVTVSS”, with “low polyreactivity”.
For the sequence “QVQLVESGGGLVQAGGSLRLSCAASGSTFPGYAMGWYRQAPGKERELVAAGGSTYYADSVKGRFTISRDNAKNTVYLQMNSLKPEDTAVYYCAATWGSVQKGTYYYWGQGTQVTVSS”, the “polyreactivity (PSR sort gate)” value is listed as “low polyreactivity”.
The value for “QVQLVDSGGGLVQEGGSLRLSCAASGRIFWYYDMGWYRQAPGKERELVAAISQRGGSTYYADSVKGRFTISRDNAKNTVYLQMNSLKPEDTAVYYCAKRNPYWATREYWGQGTQVTVSS” was “high polyreactivity”; that for “QVQLVESGGGLVQAGGSLRLSCAASGSIFRKNAMGWYRQAPGKERELVAAITGTGRTTYADSVKGRFTISRDNAKNTVYLQMNSLKPEDTAVYYCAAEYYYRYSYTNEGDYWGQGTQVTVSS” was “low polyreactivity”.
The value for “QVQLVESCGGLVHAGGSLRLSCAASGRIIIFYAMGWYRQAPGKERELVASITSGASTYADSVKGRFTISRDNAKNTVYLQLNSLKPEDTAVYYCAKDYLDATPWFTWPTYSEFDYWGQGTQVTVSS” was “low polyreactivity”.
The value for “QVQLVESGGGLVQAGGSLRLSCAASGYTFSPNDMGWYRQAPGKERELVAAITSSVGSTYYADSVKGRFTISRDNAKNTVYLQLNSLKPEDTAVYYCNKQDSSYYISGGGDYDYWGQGTQVTVSS” was “low polyreactivity”.
Take “QVQLVESGGGLVQAGGSLRLSCAASGSIFYSNAMGWYRQAPGKEREFVATITQTGSSTYDADSVKGRFTISRDNAKNTVYLQMNSLKPEVTAVYYCAVDWILYEYEDDFWYRYDYWGQGTQVTVSS”: the “polyreactivity (PSR sort gate)” value is on record as “low polyreactivity”.
The value for “QVQLVESGGGIVQAGGSLRLSCAASGNTFGYYAIGWYRQAPGKERELVAAINFGGDTSYADSVKGRFTISRDNAKNTVYLQMNSLKPEDTAVYYCNRVPSWRIDYDYWGQGTQVTVSS” was “low polyreactivity”; that for “QVQLVESGGGIVQAGGSLRLSCAASGRNFGPYTMGWYRQAPGKERELVATISYSGSTTYYSDSVKGRFTISRDNAKNTVYLQMNSLKPEDTAVYYCNAQYYVFITFDYWGQGTKVTVSS” was “high polyreactivity”.
For “QVQLVESGGGLVQAGGSLRLSCAASGITFPENDMGWYIKAPGKEREFDADITSSGGNTYYADSVKGRFTISRDNAKNTVYLHMNSLKPEDSAVYYCNADDGYFYVYQGWYDEMDYWGQGTQVTVSS”, the “polyreactivity (PSR sort gate)” value is given as “high polyreactivity”.
With “QVQLVESRGGLVQAGGSLRLSCAASGSTRGSNAMGRYRQAPGKEMELVAAITWSGGTTYYADSVKGRFTISRDNAKNTVYLQMHSLKPEDTSVYYCATGQSVIYRYEYWGQGTQVTVSS”, the “polyreactivity (PSR sort gate)” value is on record as “low polyreactivity”.
Take “QVQLVESGGGLVQAGGSLRLSCAASGRILYGYAMGWYRQAPGTERELVASLSSGGRTYYADSVKGRFTISRDNAKNTVYLQMNSLKPEDTAVYYCAAVAYGNWYRYYYWGQGTQVTVSS”: the “polyreactivity (PSR sort gate)” value is recorded as “high polyreactivity”.
Regarding “QVQLVESGGGLVQAGGSLRLSCAASGSTFDDYVMGWYRQAPGKERELVAGINSRGTSTDYAGSVKGRFTISRDNAKNTVYLQMNSLKPEDTAVYYCAADDSHGYDYWGQGTQVTVSS”, the “polyreactivity (PSR sort gate)” value is on record as “low polyreactivity”.
With “QVQLVESGGGLVQAGGSLRLSCAASGRIFYPYAMGWYRQAPGKERELVAAISFRDGSTYYADSVKGRFTISRDNAKYTVYLQLNILKPEDTAVYYCAAVGQTHPTSPLYTKYDYWGQGTQVTVSS”, the “polyreactivity (PSR sort gate)” value is given as “low polyreactivity”.
The value for “QVQLVESGGGLVQAGGSLRLSSAASGRIFYRNAMGWYRQAPGKERELVASITSGGRTNYADSVKGRFTFSRDNAKNTVYLHMNSLKPEDTAVYYCAAPPPYSVRTFRFYYWGQGTQVTVSA” was “high polyreactivity”.
Consider “QVQLVESGGGLVQAGGSLRLSCAASGVIFYDYAMGWYRQAPGKERELVAAISSGGSTNYADSVKGRFTISRDNAKNTVYLQMNSLKPEDTAVYYCAADDRSYATWKRDYDYWGQGTQVTVSS”, for which the “polyreactivity (PSR sort gate)” value is “low polyreactivity”.
In the case of “QVQLVESGGGLVQAGGSLRLSCAASGNIFPAYVMGGYRQAPGKDRELVAAITDSDGSTFYADSVKGRFTISRDNAKNTVYLQMNSLKAEDTAVYYCAAYSYRQGWGFGYWGQGTQVTVSS”, the “polyreactivity (PSR sort gate)” value is “low polyreactivity”.
Turning to “QVQLVESGGGLVLAGGSLRLSCAASGSIFKNYAMGWYGQAPGKVRELVAAITRGTYYADSVKGRFTISRDNAKNTVYLQMNSLKPEDTAVYYCNREYWGRGYYRVRGEYDYWGQGTQVTVSS”, the “polyreactivity (PSR sort gate)” value is “low polyreactivity”.
For “QVQLVESGGGLVQAGGSLRLSCAASGSTFGGNDMGWYRQAPGKERELVAAISSGTSTNYADSVKGRFTISRDNAKNTVYLQMNSLKPEDTAVYYCAAKWHVRGRGARYRYDYDYWGQGTQVTVSS”, the “polyreactivity (PSR sort gate)” value is listed as “low polyreactivity”.
As to “QVQLVESGGGLVQAGGSLRLSCAASGSNFGYYPMGWYRQATGKERELVAAISWSDGSTYYADSVKGRFTISRDNAKNTVYLQMNSRKPEDTAVYYCAARFTPYITSDDGHYDYWGQGTQVTVSS”, the “polyreactivity (PSR sort gate)” value is given as “low polyreactivity”.
Consider “QVQLVESGGGLVQAGGSLRLSCAASGFIVRYNAMGWYRQAPGKERELVAVITDSSDSTYYADSVKGRFTISRDNAKNTVYLQMNSLKPVDTAVYYCDTDYGYAGDYWGQGSQVTVSS”, for which the “polyreactivity (PSR sort gate)” value is listed as “low polyreactivity”.
As for “QVQLVESGGGLVQAGGSLRLSCAASGITFLDNAMGWYRQAPGKERELVAAITSDGNTYYADSVKGRFTISRDNAKNTVYLQMNSLKPEDTAVYYCAARGFLKYVTEFDYWGQGTQVTVSS”, the “polyreactivity (PSR sort gate)” value was “low polyreactivity”.
